Test results: publication PMC6638984, “Increased association between Epstein-Barr virus EBNA2 from type 2 strains and the transcriptional repressor BS69 restricts EBNA2 activity” (PLoS Pathogens, 2019)
Numbering of substitutions follows the chain as printed. Numbers in names are those of the source. Read-outs that look alike come from different tables or passages of the source.

Molecular target: T1, BS69CC-MYND (BS69 amino acid 480–602, CC-MYND domain) (Homo sapiens, UniProt Q15326)
T1 construct: The BS69 CC-MYND domain (amino acids 480–602) was amplified from pCI-BS69; GST (N, cleaved yes); 6xHis (N, cleaved yes); made in house; host or cells: E. coli Rosetta 2 (DE3) pLysS
T1 sequence (Q15326 480-602): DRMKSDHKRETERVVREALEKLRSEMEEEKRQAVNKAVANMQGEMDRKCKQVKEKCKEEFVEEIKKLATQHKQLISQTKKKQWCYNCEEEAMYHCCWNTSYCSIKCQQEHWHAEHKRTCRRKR
Test: Isothermal titration calorimetry (ITC) of EBNA2 peptides and polypeptides binding to BS69CC-MYND
Conditions: mean ± SD of 3 independent experiments; for Kd: pH 7.5, 29 injections of 1.3 μl 0.3 mM EBNA2 polypeptide into 0.1 mM BS69CC-MYND; for -TΔS, event 1, two-site model / -TΔS, event 2, two-site model / n value, event 1, two-site model / n value, event 2, two-site model / ΔG, event 1, two-site model / ΔG, event 2, two-site model / ΔH, event 1, two-site model / ΔH, event 2, two-site model: 29 injections
Source text: We hypothesised that the impaired gene activation and growth maintenance properties of type 2 EBNA2 may be the result of increased binding to BS69 as a result of the aspartate to serine amino acid difference adjacent to BS69 binding motif 2. […] We used isothermal titration calorimetry (ITC) to determine the affinity of peptide binding to the C-terminal region of BS69 (amino acid 480–602) comprising the CC-MYND domain that we expressed and purified from E.coli (Fig 1B and 1C). […] The difference in binding between type 1 and type 2 EBNA2 motif 2 peptides could be influenced by both the aspartate to serine change and differences in two other amino acids present in the sequence (Fig 1B and 1C).
The BS69 CC-MYND domain (amino acids 480–602) was amplified from pCI-BS69 containing the full length human BS69 sequence (gift from Dr Stéphane Ansieau) and cloned using SLIC into the SmaI and HindIII sites of pET49b+ to generate a construct expressing an N-terminal GST-6x Histidine tag BS69CC-MYND fusion protein (S2 Table).
Four commercially synthesized peptides (Peptide Synthetics) were used for ITC. These included BS69 binding motif 2 of type 1 EBNA2 (435–445) or type 2 EBNA2 (402–412) and putative BS69 binding motif 3 of type 1 EBNA2 (445–455) or type 2 EBNA2 (412–422).
Frozen protein was quickly thawed using running water and dialysed overnight at 4°C using Slide-A-Lyzer MINI Dialysis Units (Thermo Scientific) against ITC buffer (20mM Tris-HCl, 100mM NaCl and 1mM TCEP, pH 7.5). The next day, protein samples were centrifuged at 13000 rpm for 10 mins at 4 °C and the concentration was determined by NanoDrop spectroscopy (NanoDrop Technologies) with their respective molecular weights and extinction coefficients. EBNA2 peptides (1mM) and polypeptides (type 1, 0.3 mM and type 2, 0.6 mM) were titrated against BS69CC-MYND (0.1mM) at 25°C using a MicroCalTM iTC200 instrument (Malvern). For peptides, 13 x 3.0 μl injections were used for titration. For EBNA2 polypeptides 19 x 2.0 μl or 29 x 1.3 μl injections were used for titration. ITC data were corrected for non-specific heat and analysed using MicroCal Origin 7.0. The experiments were performed in triplicate alongside a control experiment with no BS69CC-MYND (buffer only in the cell). All polypeptides were used within 24 hrs of dialysis into ITC buffer.

[1] = 25°C, pH 7.5, peptides 13 injections, polypeptides 19 injections
[2] = 25°C, read-out: KD1 (binding event 1), two-site (two event) binding model
[3] = 25°C, read-out: KD2 (binding event 2), two-site (two event) binding model

B1: T2 EBNA2_348-412: type 2 EBNA2 polypeptide, amino acids 348–412, expressed and purified from E.coli (protein)
chain: SMPQLSPVVSLHQGQGPENSPTPGPSTAGPVCRVTPSATPDISPIHEPESSDSEEPPFLFPSDWY
modifications: left off: His6, N-terminal, cleaved
notes: type 2 EBNA2 polypeptide, amino acids 348–412, expressed and purified from E.coli
[1]
  -TΔS, one-site model: 14.4 kcal/mol
  ΔG, one-site model: -8.08 ± 0.06 kcal/mol
25°C, pH 7.5, peptides 13 injections, polypeptides 19 injections, listed as T2 EBNA2348-412
  -TΔS, one-site model: 14.4 ± 2.48 kcal/mol

B2: EBNA2_348-422 SD + m3 T1: type 2 EBNA2 polypeptide 348–422 containing both the SD and motif 3 (PSIDP) mutations (protein)
chain: SMPQLSPVVSLHQGQGPENSPTPGPSTAGPVCRVTPSATPDISPIHEPESSDSEEPPFLFPDDWYPPSIDPAELD
modifications: left off: His6, N-terminal, cleaved
notes: type 2 EBNA2 polypeptide 348–422 containing both the SD and motif 3 (PSIDP) mutations
[2]
  Kd: 8 nM
[3]
  Kd: 136 nM
  -TΔS, event 1, two-site model: 21.0 ± 0.95 kcal/mol
  -TΔS, event 2, two-site model: -4.62 ± 2.01 kcal/mol
  n value, event 1, two-site model: 0.20 ± 0.01
  n value, event 2, two-site model: 0.20 ± 0.08
  ΔG, event 1, two-site model: -11.1 ± 0.17 kcal/mol
  ΔG, event 2, two-site model: -9.44 ± 0.35 kcal/mol
  ΔH, event 1, two-site model: -32.1 ± 1.12 kcal/mol
  ΔH, event 2, two-site model: -4.82 ± 1.69 kcal/mol

B3: T2 EBNA2_348-422 motif 3 mt: T2 EBNA2_348-422 with motif 3 mutated from PTLEP to ATAEA (protein)
chain: B2 chain with D62S, P67A, S68T, I69A, D70E, P71A
modifications: left off: His6, N-terminal, cleaved
notes: T2 EBNA2_348-422 with motif 3 mutated from PTLEP to ATAEA
[1]
  -TΔS, one-site model: 17.2 kcal/mol
  ΔG, one-site model: -8.50 ± 0.07 kcal/mol
25°C, pH 7.5, peptides 13 injections, polypeptides 19 injections, listed as T2 EBNA2 348-422 m3 mt
  -TΔS, one-site model: 17.2 ± 0.79 kcal/mol

B4: T2 EBNA2_348-422: type 2 EBNA2 polypeptide containing motif 1, 2 and 3, amino acids 348–422 (protein)
chain: B2 chain with D62S, S68T, I69L, D70E
modifications: left off: His6, N-terminal, cleaved
[2]
  Kd: 9 nM
[3]
  Kd: 91 nM
[1]
  -TΔS, one-site model: 45 kcal/mol
  ΔG, one-site model: -8.20 ± 0.18 kcal/mol
25°C, pH 7.5, peptides 13 injections, polypeptides 19 injections, listed as T2 EBNA2 348-422
  -TΔS, one-site model: 45.0 ± 1.84 kcal/mol
  -TΔS, event 1, two-site model: 23.1 ± 0.14 kcal/mol
  -TΔS, event 2, two-site model: -8.04 ± 0.25 kcal/mol
  n value, event 1, two-site model: 0.23 ± 0.01
  n value, event 2, two-site model: 0.21 ± 0.00
  ΔG, event 1, two-site model: -11.0 ± 0.28 kcal/mol
  ΔG, event 2, two-site model: -9.62 ± 0.16 kcal/mol
  ΔH, event 1, two-site model: -34.1 ± 0.14 kcal/mol

B5: T2 EBNA2_348-422 SD: type 2 EBNA2 polypeptide 348–422 with an S409D mutation (protein)
chain: B2 chain with S68T, I69L, D70E
modifications: left off: His6, N-terminal, cleaved
notes: type 2 EBNA2 polypeptide 348–422 with an S409D mutation
[2]
  Kd: 8 ± 3 nM
[3]
  Kd: 200 ± 26 nM
  -TΔS, event 1, two-site model: 11.6 ± 0.31 kcal/mol
  -TΔS, event 2, two-site model: 0.47 ± 1.33 kcal/mol
  n value, event 1, two-site model: 0.22 ± 0.01
  n value, event 2, two-site model: 0.20 ± 0.00
  ΔG, event 1, two-site model: -11.0 ± 0.21 kcal/mol
  ΔG, event 2, two-site model: -9.14 ± 0.08 kcal/mol
  ΔH, event 1, two-site model: -22.7 ± 0.29 kcal/mol
  ΔH, event 2, two-site model: -9.62 ± 1.32 kcal/mol

B6: T2 EBNA2_348-422 m3 T1: T2 EBNA2_348-422 with motif 3 PTLEP replaced with the type 1 sequence PSIDP (protein)
chain: B2 chain with D62S
modifications: left off: His6, N-terminal, cleaved
[1]
  -TΔS, one-site model: 19.5 ± 1.27 kcal/mol
  ΔG, one-site model: -7.80 ± 0.04 kcal/mol
  ΔH, one-site model: -27.3 ± 1.23 kcal/mol

B7: EBNA2_348-422 SD + m3 mt: type 2 EBNA2 polypeptide 348–422 containing both the SD and motif 3 (ATAEA) mutations (protein)
chain: B2 chain with P67A, S68T, I69A, D70E, P71A
modifications: left off: His6, N-terminal, cleaved
notes: type 2 EBNA2 polypeptide 348–422 containing both the SD and motif 3 (ATAEA) mutations
[2]
  Kd: 5 ± 1 nM
[3]
  Kd: 94 ± 28 nM
  -TΔS, event 1, two-site model: 20.4 ± 2.24 kcal/mol
  -TΔS, event 2, two-site model: -1.95 ± 2.10 kcal/mol
  n value, event 1, two-site model: 0.20 ± 0.00
  n value, event 2, two-site model: 0.19 ± 0.01
  ΔG, event 1, two-site model: -9.60 ± 0.21 kcal/mol
  ΔG, event 2, two-site model: -11.3 ± 0.12 kcal/mol
  ΔH, event 1, two-site model: -31.7 ± 2.14 kcal/mol
  ΔH, event 2, two-site model: -7.65 ± 1.89 kcal/mol
